In article PMC9262625, “Structural and dynamic studies of DNA recognition by NF-κB p50 RHR homodimer using methyl NMR spectroscopy”:

Columns and labels:
Details in all cases: protein: recombinant; tags: U-[2H,15N] or ILV methyl labeled; no tag stated; chain copies: 2
[1] = molecular target: T1, p50 RHR homodimer (mouse (murine), UniProt P25799 39-363); assay: NMR (13C methyl HMQC); 1:1; split peaks, at least two bound conformers; NMR: 20 mM Tris pH 6.8, 150 mM NaCl, 2 mM DTT, 300 K; native gel: 20 mM Tris pH 8.0, 10% glycerol, room temperature, 20 min
T1 sequence (P25799 39-363): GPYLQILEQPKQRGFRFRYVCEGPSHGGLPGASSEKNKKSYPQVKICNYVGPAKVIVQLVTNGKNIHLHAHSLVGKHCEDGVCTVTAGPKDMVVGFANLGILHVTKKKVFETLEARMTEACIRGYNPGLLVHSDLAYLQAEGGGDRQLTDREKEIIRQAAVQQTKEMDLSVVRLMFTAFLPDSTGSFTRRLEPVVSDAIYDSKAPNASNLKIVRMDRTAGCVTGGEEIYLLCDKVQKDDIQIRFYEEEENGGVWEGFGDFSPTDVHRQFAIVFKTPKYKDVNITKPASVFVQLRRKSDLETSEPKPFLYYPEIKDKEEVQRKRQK

[2] = molecular target: T1, p50 RHR homodimer; assay: NMR (13C methyl HMQC); 1:1; heterogeneous bound conformations; NMR: 20 mM Tris pH 6.8, 150 mM NaCl, 2 mM DTT, 300 K; native gel: 20 mM Tris pH 8.0, 10% glycerol, room temperature, 20 min
[3] = molecular target: T1, p50 RHR homodimer; assay: EMSA (native gel); 20 uM, 1:1; single band; NMR: 20 mM Tris pH 6.8, 150 mM NaCl, 2 mM DTT, 300 K; native gel: 20 mM Tris pH 8.0, 10% glycerol, room temperature, 20 min
[4] = molecular target: T1, p50 RHR homodimer; assay: NMR (13C methyl HMQC, CPMG); 1:1; single bound conformation; NMR: 20 mM Tris pH 6.8, 150 mM NaCl, 2 mM DTT, 300 K; native gel: 20 mM Tris pH 8.0, 10% glycerol, room temperature, 20 min
[5] = molecular target: T1, p50 RHR homodimer; assay: NMR (13C methyl HMQC); 1:1; single bound conformation, shifts differ from MHC H2; NMR: 20 mM Tris pH 6.8, 150 mM NaCl, 2 mM DTT, 300 K; native gel: 20 mM Tris pH 8.0, 10% glycerol, room temperature, 20 min
[6] = molecular target: T1, p50 RHR homodimer; assay: NMR (13C methyl HMQC); 1:1; two conformations; NMR: 20 mM Tris pH 6.8, 150 mM NaCl, 2 mM DTT, 300 K; native gel: 20 mM Tris pH 8.0, 10% glycerol, room temperature, 20 min

B1: κB proto (dsDNA)
DNA 1: GCTGGGAATTCCCAGC
DNA 2: GCTGGGAATTCCCAGC
- binding result [1]: binds

B2: Ig-κB (dsDNA)
DNA 1: GCTGGGACTTTCCAGC
DNA 2: GCTGGAAAGTCCCAGC
- binding result [2]: binds

B3: MHC H2 M2 (dsDNA)
DNA 1: GCTGGGGATTTCCCAGC
DNA 2: GCTGGGAAATCCCCAGC
- binding result [3]: binds

B4: IFN-κB (dsDNA)
DNA 1: GCTGGGAAATTCCAGC
DNA 2: GCTGGAATTTCCCAGC
- binding result [2]: binds

B5: H2-κB (dsDNA)
DNA 1: GCTGGGAATCCCCAGC
DNA 2: GCTGGGGATTCCCAGC
- binding result [2]: binds

B6: MHC H2 (dsDNA)
DNA 1: GCTGGGGATTCCCCAGC
DNA 2: GCTGGGGAATCCCCAGC
- binding result [4]: binds

B7: MHC H2 M1 (dsDNA)
DNA 1: GCTGGGAATTTCCCAGC
DNA 2: GCTGGGAAATTCCCAGC
- binding result [5]: binds

B8: 4xG-10 (4G-10) (dsDNA)
DNA 1: GCTGGGGATCCCCAGC
DNA 2: GCTGGGGATCCCCAGC
- binding result [6]: binds
